According to the supplement of paper PMC10567573:
± gives the standard deviation.

Test: protein stability index of a GFP-peptide fusion (GPS, HEK-293T) (PSI 1-6); higher = more stable
[1] = treatment: DMSO, c terminus: a fixed tail appended
[2] = treatment: MLN4924 1 uM, 8 h, c terminus: a fixed tail appended
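Further: 24-mer peptide tiles fused after GFP, lentivirally expressed, FACS-sorted into six equal bins by GFP/DsRed ratio, decoded by Illumina sequencing, PSI is the read-weighted mean bin number.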

Sequence	protein stability index [1]	protein stability index [2]	protein stability index (treatment: DMSO, c terminus: native)	protein stability index (treatment: MLN4924 1 uM, 8 h, c terminus: native)
PASPNPFVHELHLSRLQRVKFCLL [LPCAT4]	2.56 ± 0.6	2.51 ± 0.3	–	–
GKTAASWCLHVNNWLQVSFTAKHA [FSD1]	3.23 ± 0.46	3.09 ± 0.76	–	–
LHAQLRDLTSSSSDELSWIIELLE [ELF3]	2.83 ± 0.22	2.99 ± 0.39	–	–
SLSKKYRQDAKYLNMRSTYAKLAA [SEC22B]	2.56 ± 0.24	2.62 ± 0.073	–	–
ARGLDDAAARGGQCPGLGPAPTPT [ZBED3]	4.65 ± 0.14	4.7 ± 0.25	–	–
MENLLQATKSHVDKVIMKLGKTNA [DYNC2LI1]	3.24 ± 0.28	3.34 ± 0.38	–	–
GYSSLDQSPDEKPLVALDTDSDDD [FAM219A]	5.69 ± 0.17	5.48 ± 0.31	–	–
ELGGKNPAIIFEDANLDECIPATV [ALDH8A1]	4.54 ± 0.28	4.72 ± 0.27	–	–
VKYPELVLEHSLDREEEAIHHLVL [PCDHGA10]	2.6 ± 0.096	2.63 ± 0.36	–	–
HPGSGTKVQFNLQFTKPNASLGDV [SASS6]	3.17 ± 0.44	3.23 ± 0.23	–	–
ILLKVKTEIEEELKSLDKEISEAF [BCL2L13]	2.75 ± 0.36	3.19 ± 0.33	–	–
VELPIVDSLHPRPPYLPLAVPEDL [FUT8]	4.24 ± 0.31	4.54 ± 0.22	–	–
LTYACENGHTDVADVLLQAGADLE [ANKRD17]	4.3 ± 0.16	4.68 ± 0.35	–	–
WEYMHSPSENSKEAEILEVLRHPR [CPOX]	3.99 ± 0.12	4.07 ± 0.32	–	–
IKHVLQTFGPIPEFSRATAEKVNQ [CRYL1]	3.39 ± 0.44	3.43 ± 0.51	–	–
QYLMATFVHVYITSFIRGPNPSKV [CDS1]	3.12 ± 0.17	3.2 ± 0.34	–	–
KWDGKSTTIKRKREDDKLVVECVM [FABP4]	2.82 ± 0.3	2.83 ± 0.23	–	–
LLLILVSYVHILSAILQFPSTLGR [OR10K2]	2.98 ± 0.16	3.33 ± 0.35	–	–
HQLYTSSSHHSHSYIGLPYADHNY [KMT2E]	2.5 ± 0.042	2.53 ± 0.21	–	–
WTLQRRLTRLRTASGHEPGGSAVC [PLEKHN1]	3 ± 0.23	3.06 ± 0.22	–	–
LQDGNLRAPHKESTLPRSGSSGGQ [CHCHD6]	5.03 ± 0.12	4.95 ± 0.31	–	–
FHHIPSTCQRVNGIKVQNGGIVTD [SLC19A2]	2.47 ± 0.55	3 ± 0.41	–	–
SEGLHLAGTAGHPPSGSQPLTSTQ [FBF1]	5.07 ± 0.17	4.96 ± 0.23	–	–

Sequence	protein stability index [1]	protein stability index [2]	protein stability index (treatment: DMSO, c terminus: native)	protein stability index (treatment: MLN4924 1 uM, 8 h, c terminus: native)
TFDAITTIRGEVMFFKDRFYMRTN [MMP1]	2.25 ± 0.41	2.07 ± 0.19	–	–
KIIAVGVIDILPNCVSSVYLYYDP [ATE1]	2.62 ± 0.42	3.19 ± 0.43	–	–
AYDEALAELHAHGPAAFVDYFERN [ZSWIM9]	3.73 ± 0.24	3.74 ± 0.34	–	–
WLQNTHVYSWPKNKKNILLRLLRE [TRAF3IP2]	2.08 ± 0.58	2.38 ± 0.42	–	–
GVLDALHVLEGLFRTDPEAKVKLV [ZSWIM9]	2.28 ± 0.23	2.25 ± 0.18	–	–
PLFTPQSPVTATLSDEDDGFVDLL [CDC25A]	4.65 ± 0.13	4.43 ± 0.38	–	–
STQEPQSPREGEELKPEDKDPRDP [GNAS]	5.59 ± 0.34	5.42 ± 0.48	–	–
SGTQYVSTRQTQSWTAVTPQQTWA [C18orf25]	2.7 ± 0.29	3 ± 0.51	–	–
TMAQHAEVLVKSNNLTDRIVVIPG [CARM1]	3.08 ± 0.22	3.36 ± 0.23	–	–
IQECVPEDLELKKKIFAQLDSIID [CRYL1]	3.07 ± 0.2	3.33 ± 0.34	–	–
TPMNHQKAVNDETCKASHITSSVF [FBXO34]	3.75 ± 0.075	3.77 ± 0.1	–	–
ERKGWLAPSPGVKEQAIWKHPQPA [PKD2L1]	3.52 ± 0.21	3.73 ± 0.41	–	–
CKNSNTVYCKLESCPSRGQGKPS [SPRY1]	–	–	3.789 ± 0.011	3.97 ± 0.22
GLKGRTLYPAVSAVWGQCQVRIRY [SPSB2]	2.98 ± 0.77	2.67 ± 0.56	–	–
PLNCAPCPRRSEPVVQCQYPSGAE [IRX6]	3.93 ± 0.14	3.94 ± 0.12	–	–
KWNTQTKARSYSYPHCTGISQQDP [ZC2HC1C]	3.33 ± 0.34	3.63 ± 0.38	–	–
LKEGVRLDRVRGGRQKYKRRPEVD [ESRRA]	4.19 ± 0.29	4.43 ± 0.19	–	–
CKRMDLVCQRMLNQGFLKVERYHN [FBXO28]	2.38 ± 0.29	2.1 ± 0.16	–	–
TEQAAEYVPEKVKKAEKKLEENPY [CSTF3]	5.52 ± 0.3	5.37 ± 0.14	–	–
DVKVGGSKYGIINLQSLKTPTLKV [DCAF4]	2.62 ± 0.2	2.65 ± 0.28	–	–
DKDDEEKPKIEDVGSDEEDDSGKD [HSP90AB1]	5.57 ± 0.34	5.54 ± 0.062	–	–
EDSLATVKVVLIPVGQEIVIPFKV [IQUB]	2.86 ± 1.3	2.43 ± 0.98	–	–
FIDGKFLPCSSYIDSYDPSTGEVY [ALDH8A1]	2.44 ± 1.2	2.66 ± 0.11	–	–

Sequence	protein stability index [1]	protein stability index [2]	protein stability index (treatment: DMSO, c terminus: native)	protein stability index (treatment: MLN4924 1 uM, 8 h, c terminus: native)
RADEPQWSLYPSDSQVSEEVKTRH [CHGB]	5.18 ± 0.068	5.18 ± 0.064	–	–
AVLTTHHHWDHARGNPELARLRPG [HAGHL]	3.28 ± 0.17	3.4 ± 0.34	–	–
TGITLLRVKFKSQQHRQGRSHHLE [PTGFR]	2.24 ± 0.29	2.44 ± 0.34	–	–
EKDQEQVVMNLDSRLLIFPLYICC [GMCL1]	2.74 ± 0.75	2.74 ± 0.67	–	–
GLTFLLPFLFFGHFWQLFNALTLF [TMEM120A]	2.85 ± 0.11	2.63 ± 0.052	–	–
SLGGCSQDFLLFSPEVESLPVASS [NFE2L1]	2.49 ± 0.52	2.74 ± 0.24	–	–
LAREGVAAFYKGYVPNMLGIIPYA [SLC25A25]	2.42 ± 0.49	2.38 ± 0.27	–	–
IMNFIDIVAIIPYFITLGTEIAEQ [KCNA1]	3.2 ± 0.41	2.89 ± 0.15	–	–
LCNLGKERFLELAPDFVGDILWEH [ETS2]	2.46 ± 0.26	2.28 ± 0.61	–	–
DPVVNGERSGCALTDAVAPGNKGR [TCF25]	5.21 ± 0.21	5.32 ± 0.21	–	–
THHKLCTFILKNPPENSDSGTGKK [EIF5]	3.95 ± 0.27	4.28 ± 0.18	–	–
AAAFSQCEEWSFFHAYYYCFITLT [KCNK9]	3.33 ± 0.51	3.23 ± 0.49	–	–
YRHVMLPKDIAKLVPKTHLMSESE [CKS1B]	3.75 ± 0.32	3.85 ± 0.23	–	–
STRVCLQPIRGVEGSDYINASFID [PTPRD]	3.18 ± 0.29	3.25 ± 0.41	–	–
GEKPYECQDCGRAFNQNSSLGRHK [ZNF8]	3.19 ± 0.47	3.69 ± 0.23	–	–
HVHCFTCAACKTPIRNRAFYMEEG [PDLIM7]	2.24 ± 0.11	2.47 ± 0.23	–	–
QGGEYLPKPEPPQLVLAYDYSREV [FEM1A]	3.93 ± 0.23	4.12 ± 0.28	–	–
YVKFDAVSGDYYPIIYFNDYWNLQ [CLPTM1]	2.78 ± 0.5	2.8 ± 0.64	–	–
MSERLRPRKRRRNGNEEDNHLPPQ [FAM104A]	5.3 ± 0.14	5.39 ± 0.14	–	–
PYGPPPDAVQTSLMDEGASSEKKR [RBBP5]	5.37 ± 0.25	5.463 ± 0.047	–	–
IYQYVQNSMAPHPARDYVVLRTWR [DLC1]	1.93 ± 0.23	2.03 ± 0.37	–	–
LKKDKKKEEKEDEISLEDLIERER [ZC3H15]	5.47 ± 0.41	5.51 ± 0.13	–	–
ILSEEGRRQQAKLKELQAIAERLG [KCNAB2]	3.57 ± 0.38	3.73 ± 0.3	–	–

Sequence	protein stability index [1]	protein stability index [2]	protein stability index (treatment: DMSO, c terminus: native)	protein stability index (treatment: MLN4924 1 uM, 8 h, c terminus: native)
ADGIEVSYNACGVLSHIMFDGPEA [ZER1]	2.93 ± 0.28	2.94 ± 0.27	–	–
SDPARYEFLWGPRAHAEIRKMSLL [MAGEA10]	2.46 ± 0.3	2.49 ± 0.53	–	–
YETVAAATSESTTVEPGKLDVGAT [DRICH1]	5.36 ± 0.2	5.43 ± 0.32	–	–
RPENRSFYLALYKQMSFLEKRGCP [TCF25]	2.12 ± 0.3	2.19 ± 0.34	–	–
RLGWQQQAELQELEERLQLQFEAE [MTUS2]	4.55 ± 0.24	4.65 ± 0.11	–	–
FWKKYRTFWKEDKAFWKEDNALWE [CCDC70]	2.54 ± 0.49	2.26 ± 0.36	–	–
QFYMFGWTHVTLLIVVTQSHLVIH [CDS2]	2.85 ± 0.37	3.31 ± 0.59	–	–
ISQMDSDQFIPIWTVANMEEIKKL [LARP4]	3.25 ± 0.19	3.32 ± 0.16	–	–
FSINSRLASSLGNLNAATDDPENK [CDC14A]	5.08 ± 0.26	5.1 ± 0.39	–	–
NAGISFSVKKQGETVADVRTLPNA [MLH1]	4.37 ± 0.46	4.11 ± 0.1	–	–
TRLYLRSHRPNMELCRDAAQFRLL [TEKT4]	2.16 ± 0.44	2.27 ± 0.32	–	–
TSIVYATEKKQTKVEFPEARIYEE [KCTD10]	4.5 ± 0.12	4.21 ± 0.55	–	–
ARIQTLEPDNWMKEVMLFGHGTRK [RSAD1]	3 ± 0.5	3.33 ± 0.35	–	–
SWFDNGSICMRMEILGCPLPDPNN [CPXM2]	2.09 ± 0.089	2.3 ± 0.47	–	–
FDRKKKSISLMYGGSKRKSSFFSS [SLA]	2.53 ± 0.22	2.68 ± 0.4	–	–
FFEKPDYDYLRKLFTDLFDRKGYM [CSNK1G3]	2.05 ± 0.58	2.5 ± 0.25	–	–
YEADCLAAAYGGKAAPAAPPAARP [CEBPB]	4.49 ± 0.15	4.6 ± 0.2	–	–
MEGDGGTPWALALLRTFDAGEFTG [RIPK4]	2.11 ± 0.16	–	–	–
KEDGEPSWREAKVSWFGSPTTSFL [PWWP2B]	2.95 ± 0.082	3.17 ± 0.55	–	–
ERSMSENAVRQNGQLVRNDSLWHR [MFF]	3.84 ± 0.42	3.69 ± 0.4	–	–
